# Test results: patent US20210246224A1 (Regeneron, published 2021)
# How the values were obtained:
# [1] = molecular target: T1, human HER2 expressed on cells (cancer cell lines and normal primary cultures) (human, UniProt P04626 23-1255); assay: cell-based or functional assay
# [2] = molecular target: T2, human APLP2 extracellular domain expressed with a C-terminal myc-myc-hexahistidine tag (human, UniProt Q06481 32-692); assay: SPR (Biacore 4000), antibody captured on anti-human Fc, hAPLP2-MMH injected, 37 C
# T2 construct: also called hAPLP2-MMH; APLP2.mmh
# Protocol: (§1) Equilibrium dissociation constants (KD values) for HER2 and APLP2 binding to purified anti-HER2xAPLP2 bispecific and parental antibodies were determined using a real-time surface plasmon resonance biosensor using a Biacore 4000 instrument. The Biacore sensor surface was first derivatized by amine coupling with a monoclonal mouse anti-human Fc antibody (GE, Cat #BR-1008-39) to capture anti-HER2xAPLP2 bispecific monoclonal antibodies. […] Kinetic association rate constant (ka) and dissociation rate constant (kd) were determined by fitting the real-time sensorgrams to a 1:1 binding model using Scrubber 2.0c curve fitting software. Binding dissociation equilibrium constants (KD) and dissociative half-lives (t1/2) were calculated from the kinetic rate constants as: […]
# [3] = molecular target: T2, human APLP2 extracellular domain …; assay: SPR, antibody captured, hAPLP2-MMH injected, 25 C
# [4] = molecular target: T1, human HER2 expressed on cells (cancer …); assay: imaging, Alexa647-labelled antibody 10 ug/mL at 4 C on MDA-MB-453 cells; signal per nuclei, normalised to the highest cell line
# Protocol: (§2) After, cells were washed twice with cold DMEM+10% FBS. […] After, the solution was replaced with DPBS/CM. Binding of the bispecific antibodies to each of the cell types was measured using an Image Xpress^Micro automatic microscope (Molecular Devices). […] (See also FIG. 2.)
# (§3) The signal of antibody binding (mean intensity fluorescence of Alexa647) divided by the nuclei signals was determined for each condition using MetaXpress software (Molecular Devices). Values were normalized to the cell line displaying the highest antibody binding signal.
# [5] = molecular target: T3, human HER2 extracellular domain expressed with a C-terminal myc-myc-hexahistidine tag (human, UniProt P04626 23-652); assay: SPR (Biacore 4000), antibody captured on anti-human Fc, hHER2-MMH injected, 37 C
# T3 construct: also called hHER2-MMH; HER2.mmh
# Protocol: as §1
# [6] = molecular target: T1, human HER2 expressed on cells (cancer …); assay: imaging, Alexa647-labelled antibody 10 ug/mL at 4 C on MCF7 cells; signal per nuclei, normalised to the highest cell line
# Protocol: as §2, §3
# [7] = molecular target: T1, human HER2 expressed on cells (cancer …); assay: imaging, Alexa647-labelled antibody 10 ug/mL at 4 C on NLE cells; signal per nuclei, normalised to the highest cell line
# Protocol: as §2, §3
# [8] = molecular target: T1, human HER2 expressed on cells (cancer …); assay: imaging, Alexa647-labelled antibody 10 ug/mL at 4 C on MDA-MB-361 cells; signal per nuclei, normalised to the highest cell line
# Protocol: as §2, §3
# [9] = molecular target: T1, human HER2 expressed on cells (cancer …); assay: imaging, Alexa647-labelled antibody 10 ug/mL at 4 C on T47D cells; signal per nuclei, normalised to the highest cell line
# Protocol: as §2, §3
# [10] = molecular target: T1, human HER2 expressed on cells (cancer …); assay: imaging, Alexa647-labelled antibody 10 ug/mL at 4 C on SKBR3 cells; signal per nuclei, normalised to the highest cell line
# Protocol: To test the ability of bispecific anti-HER2xAPLP2 molecules described herein to bind to cells lines expressing various levels of HER2, a high content imaging assay was performed. […] Cells were plated on collagen-coated, black wall, 96-well, optical plates (Greiner, Cat #655936) at 2.5×10⁵ cells per well in their appropriate culture media, which is described for each cell line/culture in Table 6, and incubated overnight at 37° C. in 5% CO₂.
# as §2, §3
# [11] = molecular target: T1, human HER2 expressed on cells (cancer …); assay: imaging, Alexa647-labelled antibody 10 ug/mL at 4 C on JIMT-1 cells; signal per nuclei, normalised to the highest cell line
# Protocol: as §2, §3
# [12] = molecular target: T1, human HER2 expressed on cells (cancer …); assay: imaging, Alexa647-labelled antibody 10 ug/mL at 4 C on NBE cells; signal per nuclei, normalised to the highest cell line
# Protocol: as §2, §3
100 nM hAPLP2-MMH Bound (RU) [2],Kd [2],t½ [2],90 nM hAPLP2-MMH Bound (RU) [3],Kd [3],t½ [3],Binder,"IC50 (nM) of cell killing, JIMT-1 cells, 6 days, nuclei count [1]",other results
114 RU,124 nM,1.1 min,60.5 RU,11.3 nM,11 min,"H4xH21387P2 (antibody, V domains shown, fully human antibody; also called anti-APLP2 parental antibody) VH: EVQLVESGGGLVQPGRSLRLSCVASGFTFADYAMHWVRQAPGKGLEWVSGISWNSGNIDYADSVKGRFTISRDNAKNSLYLQMNSLRTEDTALYYCAKVRIVVAGYYYYYYGMDVWGQGTTVTVSS VL: not shown",,
0 RU,,,,,,"H4H13055P2 (antibody, V domains shown, fully human antibody; also called anti-HER2 parental antibody) VH: QVQLQESGPGLVKPSQTLSLTCTVSGGSISSGHYFWSWIRQHPGKGLEWIGYIFYSGSTHYNPSLKSRLSISVDTSKNQFSLRLTSVTAADTAVYYCAREEGDYNFWDVDYVPGHFDYWGQGTLVTVSS VL: not shown",,binding result [2]: no binding (tested: 300 nM highest concentration injected)
23 RU,235 nM,1.1 min,17.1 RU,9.98 nM,12.2 min,"H4H25014D (bispecific antibody, IgG4, V domains shown, Wild-type kappa CL and a modified (chimeric) IgG4 CH domain as set forth in US20140243504A1; also called bispecific anti-HER2xAPLP2 antibody) VH 1: QVQLQESGPGLVKPSQTLSLTCTVSGGSISSGHYFWSWIRQHPGKGLEWIGYIFYSGSTHYNPSLKSRLSISVDTSKNQFSLRLTSVTAADTAVYYCAREEGDYNFWDVDYVPGHFDYWGQGTLVTVSS VH 2: EVQLVESGGGLVQPGGSLRLSCAASGFTFSTYVMSWVRQAPGKGPEWVSGISGRTGTTYYADSVKGRFTISRDNSKNTLYLQMNSLRAEDTAVYYCASRITAAGRGYYYYYGMDVWGRGTTVTVSS VL: not shown",,Antibody bound (% of highest) [4]: 25%; Kd [5]: 3.37 nM; t½ [5]: 16 min; Antibody bound (% of highest) [6]: 5%; Antibody bound (% of highest) [7]: 4%; Antibody bound (% of highest) [8]: 30%; Antibody bound (% of highest) [9]: 6%; Antibody bound (% of highest) [10]: 100%; Antibody bound (% of highest) [11]: 17%; Antibody bound (% of highest) [12]: 5%
48 RU,899 nM,0.03 min,52.1 RU,21.7 nM,0.5 min,"H4xH21371P2 (antibody, V domains shown, fully human antibody; also called anti-APLP2 parental antibody) VH: QVQLVQSGVEVKKPGASVKVSCKASGYTFTDYGISWVRQAPGQGLEWMGWISAHNGNTNYAQKLQGRVTMTTDTSTNTAYMELRSLRSDDTAVYYCARRNWKYFDYWGQGTLVTVSS VL: not shown",,
34 RU,176 nM,1.3 min,36.6 RU,11.2 nM,10.9 min,"H4xH21362P2 (antibody, V domains shown, fully human antibody; also called anti-APLP2 parental antibody) VH: EVQLVESGGGLVQPGGSLRLSCAASGFTFSTYVMSWVRQAPGKGPEWVSGISGRTGTTYYADSVKGRFTISRDNSKNTLYLQMNSLRAEDTAVYYCASRITAAGRGYYYYYGMDVWGRGTTVTVSS VL: not shown",,

# Further lines, the binder ahead of its results:
Binder,100 nM hAPLP2-MMH Bound (RU) [2],Kd [2],t½ [2],90 nM hAPLP2-MMH Bound (RU) [3],Kd [3],t½ [3],"IC50 (nM) of cell killing, JIMT-1 cells, 6 days, nuclei count [1]",other results
"H4H25018D-SMCC-DM1 (bispecific antibody, IgG4, V domains shown, SMCC-DM1 on lysines, sites not stated) VH 1: QVQLQESGPGLVKPSQTLSLTCTVSGGSISSGHYFWSWIRQHPGKGLEWIGYIFYSGSTHYNPSLKSRLSISVDTSKNQFSLRLTSVTAADTAVYYCAREEGDYNFWDVDYVPGHFDYWGQGTLVTVSS VH 2: EVQLVESGGGLVQPGRSLRLSCVASGFTFADYAMHWVRQAPGKGLEWVSGISWNSGNIDYADSVKGRFTISRDNAKNSLYLQMNSLRTEDTALYYCAKVRIVVAGYYYYYYGMDVWGQGTTVTVSS VL: not shown",,,,,,,0.07 nM,
"H4H25019D-Compound II (bispecific antibody, V domains shown, Compound II on reduced interchain cysteines) VH 1: QVQLVQSGPEVKKPGASVKVSCKASGYTFPNFGISWVRQAPGQGLEWMGWIAPYNVATNYAPKLQGRVTMTTDTSTSTAYMELRSLRSDDTAVYYCARWGAGYMGYYYYGMDVWGQGTTVTVSS VH 2: EVQLVESGGGLVQPGRSLRLSCVASGFTFADYAMHWVRQAPGKGLEWVSGISWNSGNIDYADSVKGRFTISRDNAKNSLYLQMNSLRTEDTALYYCAKVRIVVAGYYYYYYGMDVWGQGTTVTVSS VL: not shown",,,,,,,0.9 nM,
"H4H25018D-Compound I (bispecific antibody, V domains shown, Compound I on lysines, sites not stated) VH 1: QVQLQESGPGLVKPSQTLSLTCTVSGGSISSGHYFWSWIRQHPGKGLEWIGYIFYSGSTHYNPSLKSRLSISVDTSKNQFSLRLTSVTAADTAVYYCAREEGDYNFWDVDYVPGHFDYWGQGTLVTVSS VH 2: EVQLVESGGGLVQPGRSLRLSCVASGFTFADYAMHWVRQAPGKGLEWVSGISWNSGNIDYADSVKGRFTISRDNAKNSLYLQMNSLRTEDTALYYCAKVRIVVAGYYYYYYGMDVWGQGTTVTVSS VL: not shown",,,,,,,0.2 nM,
"H4H25019D-Compound I (bispecific antibody, V domains shown, Compound I on lysines, sites not stated) VH 1: QVQLVQSGPEVKKPGASVKVSCKASGYTFPNFGISWVRQAPGQGLEWMGWIAPYNVATNYAPKLQGRVTMTTDTSTSTAYMELRSLRSDDTAVYYCARWGAGYMGYYYYGMDVWGQGTTVTVSS VH 2: EVQLVESGGGLVQPGRSLRLSCVASGFTFADYAMHWVRQAPGKGLEWVSGISWNSGNIDYADSVKGRFTISRDNAKNSLYLQMNSLRTEDTALYYCAKVRIVVAGYYYYYYGMDVWGQGTTVTVSS VL: not shown",,,,,,,0.75 nM,
"H4H25019D-SMCC-DM1 (bispecific antibody, V domains shown, SMCC-DM1 on lysines, sites not stated) VH 1: QVQLVQSGPEVKKPGASVKVSCKASGYTFPNFGISWVRQAPGQGLEWMGWIAPYNVATNYAPKLQGRVTMTTDTSTSTAYMELRSLRSDDTAVYYCARWGAGYMGYYYYGMDVWGQGTTVTVSS VH 2: EVQLVESGGGLVQPGRSLRLSCVASGFTFADYAMHWVRQAPGKGLEWVSGISWNSGNIDYADSVKGRFTISRDNAKNSLYLQMNSLRTEDTALYYCAKVRIVVAGYYYYYYGMDVWGQGTTVTVSS VL: not shown",,,,,,,0.13 nM,
"H4H25018D-Compound II (bispecific antibody, V domains shown, Compound II on reduced interchain cysteines) VH 1: QVQLQESGPGLVKPSQTLSLTCTVSGGSISSGHYFWSWIRQHPGKGLEWIGYIFYSGSTHYNPSLKSRLSISVDTSKNQFSLRLTSVTAADTAVYYCAREEGDYNFWDVDYVPGHFDYWGQGTLVTVSS VH 2: EVQLVESGGGLVQPGRSLRLSCVASGFTFADYAMHWVRQAPGKGLEWVSGISWNSGNIDYADSVKGRFTISRDNAKNSLYLQMNSLRTEDTALYYCAKVRIVVAGYYYYYYGMDVWGQGTTVTVSS VL: not shown",,,,,,,0.3 nM,
"H4H13050P2 (antibody, V domains shown, Names starting with H4 or H4H denote fully human antibodies; also called anti-HER2 parental antibody) VH: QVQLVQSGPEVKKPGASVKVSCKASGYTFPNFGISWVRQAPGQGLEWMGWIAPYNVATNYAPKLQGRVTMTTDTSTSTAYMELRSLRSDDTAVYYCARWGAGYMGYYYYGMDVWGQGTTVTVSS VL: not shown",-3 RU,,,,,,,
